For one molecule, Kd results are on record in publication PMC5428781, “Novel insights into the interaction of UBA5 with UFM1 via a UFM1-interacting sequence” (Scientific Reports, 2017).

This test addresses T1, ubiquitin-fold modifier 1 (UFM1) (human, UniProt P61960 1-83).
T1 construct: ubiquitin-fold modifier 1 (UFM1), human; the form that ends at Gly 83 (the residues missing in the models are counted up to Gly 83); pET15b, N-terminal His6 followed by a TEV site; purified by the protocol of the UBA5 constructs, which removes the tag; In solution a monomer and a fraction of dimer; also called UFM1 WT; UFM1 alone; source: E. coli, purified (His-Trap, TEV cleavage, second …)
In words: fluorescence polarisation; UFM1 at various concentrations with 120 nM N-terminal fluorescein-labeled UIS peptide; 50 mM Hepes pH 7.5, 150 mM NaCl, 5% glycerol, 0.2 mg/ml BSA; room temperature; triplicate; one site specific binding fit. As to conditions: both partners purified. On the technique in general: Fluorescence polarisation rises when a labelled molecule tumbles more slowly, as on binding a larger partner.

Ends that are not written are not given here. fluorescein = fluorescein label on the N-terminus

T1 sequence (P61960 1-83): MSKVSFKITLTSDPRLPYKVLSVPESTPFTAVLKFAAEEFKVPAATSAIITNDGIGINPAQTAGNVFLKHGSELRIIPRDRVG

B1: fluorescein-labeled UIS peptide (amino acids 334–346 of UBA5) (peptide, UniProt Q9GZZ9 334-346, looked up)
peptide: fluorescein-IIHEDNEWGIELV
notes: source: synthetic peptide
A word on the Kd: it is the free concentration of one partner at which half of the binding sites on the other are occupied at equilibrium, for simple one-to-one binding. A lower Kd goes with a tighter complex. For the molecule B1, binding was characterised by a dissociation constant (Kd) of 8.47 µM. This lies in the single-digit micromolar range.
